Results reported in paper PMC8298264, “Function of cofactor Akirin2 in the regulation of gene expression in model human neutrophil-like HL60 cells” (Bioscience Reports, 2021).

Test system: human HL60 cells
Assay: SWATH-MS proteomics, differential protein representation, akirin2 KO vs WT HL60 cells
Assay type: cell-based
Details: akirin2 KO vs WT HL60 cells, sheet "Under-represented in KO"
In short: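 Differential representation compares akirin2 KO with WT HL60 across three biological replicates, 5 µg digest each, acquired by data-independent SWATH on a 120-min gradient. Library built from combined IDA runs searched with Paragon; proteins accepted at 1% FDR, with total-area-sum normalization.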

B1: sp¦Q9NRP0¦OSTC_HUMAN (protein, UniProt Q9NRP0 1-149, looked up)
Oligosaccharyltransferase …: METLYRVPFLVLECPNLKLKKPPWLHMPSAMTVYALVVVSYFLITGGIIYDVIVEPPSVGSMTDEHGHQRPVAFLAYRVNGQYIMEGLASSFLFTMGGLGFIILDRSNAPNIPKLNRFLLLFIGFVCVLLSFFMARVFMRMKLPGYLMG
- Fold Change (KO vs WT): 0.6247
- Log (Fold Change) (KO vs WT): -0.2043

B2: sp¦P61006¦RAB8A_HUMAN (protein, UniProt P61006 1-204, looked up)
Ras-related protein Rab-8A: MAKTYDYLFKLLLIGDSGVGKTCVLFRFSEDAFNSTFISTIGIDFKIRTIELDGKRIKLQIWDTAGQERFRTITTAYYRGAMGIMLVYDITNEKSFDNIRNWIRNIEEHASADVEKMILGNKCDVNDKRQVSKERGEKLALDYGIKFMETSAKANINVENAFFTLARDIKAKMDKKLEGNSPQGSNQGVKITPDQQKRSSFFRC
- Fold Change (KO vs WT): 0.62
- Log (Fold Change) (KO vs WT): -0.2076

B3: sp¦Q14683¦SMC1A_HUMAN (protein, UniProt Q14683 1-1233, looked up)
Structural maintenance of …: MGFLKLIEIENFKSYKGRQIIGPFQRFTAIIGPNGSGKSNLMDAISFVLGEKTSNLRVKTLRDLIHGAPVGKPAANRAFVSMVYSEEGAEDRTFARVIVGGSSEYKINNKVVQLHEYSEELEKLGILIKARNFLVFQGAVESIAMKNPKERTALFEEISRSGELAQEYDKRKKEMVKAEEDTQFNYHRKKNIAAERKEAKQEKEEADRYQRLKDEVVRAQVQLQLFKLYHNEVEIEKLNKELASKNKEIEKDKKRMDKVEDELKEKKKELGKMMREQQQIEKEIKEKDSELNQKRPQYIKAKENTSHKIKKLEAAKKSLQNAQKHYKKRKGDMDELEKEMLSVEKARQEFEERMEEESQSQGRDLTLEENQVKKYHRLKEEASKRAATLAQELEKFNRDQKADQDRLDLEERKKVETEAKIKQKLREIEENQKRIEKLEEYITTSKQSLEEQKKLEGELTEEVEMAKRRIDEINKELNQVMEQLGDARIDRQESSRQQRKAEIMESIKRLYPGSVYGRLIDLCQPTQKKYQIAVTKVLGKNMDAIIVDSEKTGRDCIQYIKEQRGEPETFLPLDYLEVKPTDEKLRELKGAKLVIDVIRYEPPHIKKALQYACGNALVCDNVEDARRIAFGGHQRHKTVALDGTLFQKSGVISGGASDLKAKARRWDEKAVDKLKEKKERLTEELKEQMKAKRKEAELRQVQSQAHGLQMRLKYSQSDLEQTKTRHLALNLQEKSKLESELANFGPRINDIKRIIQSREREMKDLKEKMNQVEDEVFEEFCREIGVRNIREFEEEKVKRQNEIAKKRLEFENQKTRLGIQLDFEKNQLKEDQDKVHMWEQTVKKDENEIEKLKKEEQRHMKIIDETMAQLQDLKNQHLAKKSEVNDKNHEMEEIRKKLGGANKEMTHLQKEVTAIETKLEQKRSDRHNLLQACKMQDIKLPLSKGTMDDISQEEGSSQGEDSVSGSQRISSIYAREALIEIDYGDLCEDLKDAQAEEEIKQEMNTLQQKLNEQQSVLQRIAAPNMKAMEKLESVRDKFQETSDEFEAARKRAKKAKQAFEQIKKERFDRFNACFESVATNIDEIYKALSRNSSAQAFLGPENPEEPYLDGINYNCVAPGKRFRPMDNLSGGEKTVAALALLFAIHSYKPAPFFVLDEIDAALDNTNIGKVANYIKEQSTCNFQAIVISLKEEFYTKAESLIGVYPEQGDCVISKVLTFDLTKYPDANPNPNEQ
- Fold Change: 0.2754
- Log (Fold Change): -0.5601

B4: sp¦Q15397¦PUM3_HUMAN (protein, UniProt Q15397 1-648, looked up)
Pumilio homolog 3: MEVKGKKQFTGKSTKTAQEKNRFHKNSDSGSSKTFPTRKVAKEGGPKVTSRNFEKSITKLGKKGVKQFKNKQQGDKSPKNKFQPANKFNKKRKFQPDGRSDESAAKKPKWDDFKKKKKELKQSRQLSDKTNYDIVVRAKQMWEILRRKDCDKEKRVKLMSDLQKLIQGKIKTIAFAHDSTRVIQCYIQYGNEEQRKQAFEELRDDLVELSKAKYSRNIVKKFLMYGSKPQIAEIIRSFKGHVRKMLRHAEASAIVEYAYNDKAILEQRNMLTEELYGNTFQLYKSADHRTLDKVLEVQPEKLELIMDEMKQILTPMAQKEAVIKHSLVHKVFLDFFTYAPPKLRSEMIEAIREAVVYLAHTHDGARVAMHCLWHGTPKDRKVIVKTMKTYVEKVANGQYSHLVLLAAFDCIDDTKLVKQIIISEIISSLPSIVNDKYGRKVLLYLLSPRDPAHTVREIIEVLQKGDGNAHSKKDTEVRRRELLESISPALLSYLQEHAQEVVLDKSACVLVSDILGSATGDVQPTMNAIASLAATGLHPGGKDGELHIAEHPAGHLVLKWLIEQDKKMKENGREGCFAKTLVEHVGMKNLKSWASVNRGAIILSSLLQSCDLEVANKVKAALKSLIPTLEKTKSTSKGIEILLEKLST
- Fold Change (KO vs WT): 0.6182
- Log (Fold Change) (KO vs WT): -0.2089

B5: sp¦Q8TCJ2¦STT3B_HUMAN (protein, UniProt Q8TCJ2 2-826, looked up)
Dolichyl-diphosphooligosacchar …: AEPSAPESKHKSSLNSSPWSGLMALGNSRHGHHGPGAQCAHKAAGGAAPPKPAPAGLSGGLSQPAGWQSLLSFTILFLAWLAGFSSRLFAVIRFESIIHEFDPWFNYRSTHHLASHGFYEFLNWFDERAWYPLGRIVGGTVYPGLMITAGLIHWILNTLNITVHIRDVCVFLAPTFSGLTSISTFLLTRELWNQGAGLLAACFIAIVPGYISRSVAGSFDNEGIAIFALQFTYYLWVKSVKTGSVFWTMCCCLSYFYMVSAWGGYVFIINLIPLHVFVLLLMQRYSKRVYIAYSTFYIVGLILSMQIPFVGFQPIRTSEHMAAAGVFALLQAYAFLQYLRDRLTKQEFQTLFFLGVSLAAGAVFLSVIYLTYTGYIAPWSGRFYSLWDTGYAKIHIPIIASVSEHQPTTWVSFFFDLHILVCTFPAGLWFCIKNINDERVFVALYAISAVYFAGVMVRLMLTLTPVVCMLSAIAFSNVFEHYLGDDMKRENPPVEDSSDEDDKRNQGNLYDKAGKVRKHATEQEKTEEGLGPNIKSIVTMLMLMLLMMFAVHCTWVTSNAYSSPSVVLASYNHDGTRNILDDFREAYFWLRQNTDEHARVMSWWDYGYQIAGMANRTTLVDNNTWNNSHIALVGKAMSSNETAAYKIMRTLDVDYVLVIFGGVIGYSGDDINKFLWMVRIAEGEHPKDIRESDYFTPQGEFRVDKAGSPTLLNCLMYKMSYYRFGEMQLDFRTPPGFDRTRNAEIGNKDIKFKHLEEAFTSEHWLVRIYKVKAPDNRETLDHKPRVTNIFPKQKYLSKKTTKRKRGYIKNKLVFKKGKKISKKTV
- Fold Change (KO vs WT): 0.6204
- Log (Fold Change) (KO vs WT): -0.2073

B6: sp¦P35908¦K22E_HUMAN (protein, UniProt P35908 1-639, looked up)
Keratin, type II cytoskeletal …: MSCQISCKSRGRGGGGGGFRGFSSGSAVVSGGSRRSTSSFSCLSRHGGGGGGFGGGGFGSRSLVGLGGTKSISISVAGGGGGFGAAGGFGGRGGGFGGGSSFGGGSGFSGGGFGGGGFGGGRFGGFGGPGGVGGLGGPGGFGPGGYPGGIHEVSVNQSLLQPLNVKVDPEIQNVKAQEREQIKTLNNKFASFIDKVRFLEQQNQVLQTKWELLQQMNVGTRPINLEPIFQGYIDSLKRYLDGLTAERTSQNSELNNMQDLVEDYKKKYEDEINKRTAAENDFVTLKKDVDNAYMIKVELQSKVDLLNQEIEFLKVLYDAEISQIHQSVTDTNVILSMDNSRNLDLDSIIAEVKAQYEEIAQRSKEEAEALYHSKYEELQVTVGRHGDSLKEIKIEISELNRVIQRLQGEIAHVKKQCKNVQDAIADAEQRGEHALKDARNKLNDLEEALQQAKEDLARLLRDYQELMNVKLALDVEIATYRKLLEGEECRMSGDLSSNVTVSVTSSTISSNVASKAAFGGSGGRGSSSGGGYSSGSSSYGSGGRQSGSRGGSGGGGSISGGGYGSGGGSGGRYGSGGGSKGGSISGGGYGSGGGKHSSGGGSRGGSSSGGGYGSGGGGSSSVKGSSGEAFGSSVTFSFR
- Fold Change (KO vs WT): 0.6196
- Log (Fold Change) (KO vs WT): -0.2079
